The source of these data is article PMC5803408 (Structure (London, England : 1993), 2018).

Numbering of substitutions follows the chain as printed. Names may count otherwise.

Test [1] concerns the target T1, human UHRF1 TTD domain (residues 126-284) D142A/E153A (human, UniProt Q96T88 126-284, D142A | E153A).
T1 sequence (looked up): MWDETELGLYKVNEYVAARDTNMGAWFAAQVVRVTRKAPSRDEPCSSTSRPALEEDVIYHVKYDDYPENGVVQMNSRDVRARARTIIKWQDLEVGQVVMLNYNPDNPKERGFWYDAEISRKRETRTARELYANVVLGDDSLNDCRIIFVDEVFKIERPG
As to the kind of experiment: cell-based or functional assay.

For test [2], the target named is T2, human UHRF1 TTD domain (residues 126-284) N194A (human, UniProt Q96T88 126-284, N194A).
T2 sequence (looked up): T1 sequence (looked up) with A17D, A28E, N69A
Nature of the test: ITC.

Test [3] has as its target T3, human UHRF1 TTD-PHD dual domains (residues 126-366) (human, UniProt Q96T88 126-366).
T3 sequence (looked up): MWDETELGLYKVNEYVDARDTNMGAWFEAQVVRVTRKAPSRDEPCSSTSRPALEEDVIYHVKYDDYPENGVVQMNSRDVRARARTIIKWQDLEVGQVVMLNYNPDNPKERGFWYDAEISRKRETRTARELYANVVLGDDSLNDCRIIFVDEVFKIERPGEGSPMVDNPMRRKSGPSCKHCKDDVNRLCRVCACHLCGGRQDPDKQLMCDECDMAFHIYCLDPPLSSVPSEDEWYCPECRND
Nature of the test: ITC.

The target of test [4] is T4, human UHRF1 TTD domain (residues 126-284) N147A (human, UniProt Q96T88 126-284, N147A).
T4 sequence (looked up): T1 sequence (looked up) with A17D, N22A, A28E
As to the kind of experiment: ITC. A general note: Isothermal titration calorimetry measures the heat released or taken up as one component is titrated into another.

The subject of test [5] is chromatin. The note with it: previous study; ref Zhang et al., 2015; cited from earlier work.

B1: human UHRF1 PBR peptide (residues 634-665) (peptide, UniProt Q96T88 634-665, looked up)
chain: EGGFASPRTGKGKWKRKSAGGGPSRAGSPRRT
As for B1, the “FRET ratio of the CFP-UHRF1 (D142A/E153A)-YFP mutant, intramolecular” value in test [1] is 0.52. Besides, the binding result in test [2] and in test [4] was “binds” each time. The “fold weaker binding than to TTD” value in test [3] was about 3 fold.

B2: K644E/K646E: UHRF1 with K644E/K646E mutations in the PBR sequence (previous study) (protein, UniProt Q96T88 1-793, looked up, variant K644E K646E)
E3 ubiquitin-protein ligase …: MWIQVRTMDGRQTHTVDSLSRLTKVEELRRKIQELFHVEPGLQRLFYRGKQMEDGHTLFDYEVRLNDTIQLLVRQSLVLPHSTKERDSELSDTDSGCCLGQSESDKSSTHGEAAAETDSRPADEDMWDETELGLYKVNEYVDARDTNMGAWFEAQVVRVTRKAPSRDEPCSSTSRPALEEDVIYHVKYDDYPENGVVQMNSRDVRARARTIIKWQDLEVGQVVMLNYNPDNPKERGFWYDAEISRKRETRTARELYANVVLGDDSLNDCRIIFVDEVFKIERPGEGSPMVDNPMRRKSGPSCKHCKDDVNRLCRVCACHLCGGRQDPDKQLMCDECDMAFHIYCLDPPLSSVPSEDEWYCPECRNDASEVVLAGERLRESKKKAKMASATSSSQRDWGKGMACVGRTKECTIVPSNHYGPIPGIPVGTMWRFRVQVSESGVHRPHVAGIHGRSNDGAYSLVLAGGYEDDVDHGNFFTYTGSGGRDLSGNKRTAEQSCDQKLTNTNRALALNCFAPINDQEGAEAKDWRSGKPVRVVRNVKGGKNSKYAPAEGNRYDGIYKVVKYWPEKGKSGFLVWRYLLRRDDDEPGPWTKEGKDRIKKLGLTMQYPEGYLEALANREREKENSKREEEEQQEGGFASPRTGEGEWKRKSAGGGPSRAGSPRRTSKKTKVEPYSLTAQQSSLIREDKSNAKLWNEVLASLKDRPASGSPFQLFLSKVEETFQCICCQELVFRPITTVCQHNVCKDCLDRSFRAQVFSCPACRYDLGRSYAMQVNQPLQTVLNQLFPGYGNGR
With B2, in test [5], the “chromatin binding of UHRF1 with K644E/K646E mutations in PBR” value is “reduced chromatin binding of UHRF1”.
